Measured values reported in patent US20210207126A1 (ADAGENE, published 2021).

B1: TY22402 (antibody, V domains shown)
VH: EVQLVESGGGLVQPGGSLRLSCAASGYSISSGYHWSWIRQAPGKGLEWLARIDWDDDKYYSTSLKSRLTISRDNSKNTLYLQLNSLRAEDTAVYYCARSYVYFDYWGQGTLVTVSS
VL: EVGSYIVHHSDCDAFYPYCDSSGRSAGGGGSPLGLAGSGGSDIQLTQSPSSLSASVGDRVTITCRASQSVRGRFLAWYQQKPGKAPKLLIYDASNRATGIPSRFSGSGSGTDFTLTISSLQPEDFATYYCQQSSSWPPTFGQGTKVEIKR
notes: IgG1 from HEK293F cells; peptide fused to the N-terminus of the light chain of TY21580; also called masking peptide B13180
B2: TY22404 (antibody, V domains shown)
VH: EVQLVESGGGLVQPGGSLRLSCAASGYSISSGYHWSWIRQAPGKGLEWLARIDWDDDKYYSTSLKSRLTISRDNSKNTLYLQLNSLRAEDTAVYYCARSYVYFDYWGQGTLVTVSS
VL: EVGSYPNPSSDCVPYYYACAYSGRSAGGGGSPLGLAGSGGSDIQLTQSPSSLSASVGDRVTITCRASQSVRGRFLAWYQQKPGKAPKLLIYDASNRATGIPSRFSGSGSGTDFTLTISSLQPEDFATYYCQQSSSWPPTFGQGTKVEIKR
notes: IgG1 from HEK293F cells; peptide fused to the N-terminus of the light chain of TY21580; also called masking peptide B13197

Legend:
[1] = target: T1, Recombinant human CTLA4-Fc (human, UniProt P16410 36-161, limits assumed); experiment: ELISA on plate-coated recombinant human CTLA4-Fc as in Example 3 (FIG. 24B)
T1 construct: Coated on the ELISA plate at 1 ug/mL; also called its antigen; not shown: Fc part
T1 sequence (looked up): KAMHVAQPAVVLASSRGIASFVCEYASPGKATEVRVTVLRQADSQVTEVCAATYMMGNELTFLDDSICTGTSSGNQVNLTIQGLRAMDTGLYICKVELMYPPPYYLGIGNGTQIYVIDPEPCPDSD
Description: (§1) Recombinant human CTLA4-Fc was diluted to 1 μg/mL in PBS and coated on a Maxisorp plate at 4° C. overnight. Plates were blocked with PBS supplemented with 3% non-fat milk at 37° C. for 1 hour. After washing, 100 μL of 3-fold serial dilutions of antibodies were added to each well. After incubation at 37° C. for 1 hour, plates were washed four times, and 100 μL HRP conjugated anti-human IgG (Fab specific) (1:6000 dilution) was added to each well. Plates were incubated at 37° C. for 1 hour, washed four times, and then 50 μL TMB substrate solution was added to each well, and the plate was incubated at room temperature. Absorbance at 450 nm was measured after the reactions were stopped with 50 μL H₂SO₄ per well. The EC₅₀ was evaluated by fitting the ELISA data using the asymmetrical sigmoidal (five-parameter logistic equation) model of GraphPad Prism 6 software.

[2] = target: T1, Recombinant human CTLA4-Fc; experiment: ELISA on plate-coated recombinant human CTLA4-Fc, before protease cleavage, data batch 1
Description: as §1

[3] = target: T1, Recombinant human CTLA4-Fc; experiment: ELISA on plate-coated recombinant human CTLA4-Fc, before protease cleavage, data batch 2
Description: as §1

[4] = target: T1, Recombinant human CTLA4-Fc; experiment: ELISA on plate-coated recombinant human CTLA4-Fc as in Example 3 (FIG. 24A)
Description: as §1

[5] = target: T1, Recombinant human CTLA4-Fc; experiment: ELISA on plate-coated recombinant human CTLA4-Fc, protease cleavage experiment, no treatment
Description: as §1
The purified activatable antibodies were treated with the proteases which recognize the cleavage sequences, and were then tested to determine whether removal of the masking peptide restored their activity.

[6] = target: T1, Recombinant human CTLA4-Fc; experiment: ELISA on plate-coated recombinant human CTLA4-Fc as in Example 3 (FIG. 25)
Description: as §1

Binder | masking efficiency (EC50 / EC50 of parental TY21580) [1] [fold] | masking efficiency (EC50 / EC50 of parental TY21580) [2] [fold] | masking efficiency (EC50 / EC50 of parental TY21580) [3] [fold] | masking efficiency (EC50 / EC50 of parental TY21580) [4] [fold] | masking efficiency (EC50 / EC50 of parental TY21580) [5] [fold] | masking efficiency (EC50 / EC50 of parental TY21580) [6] [fold]
B1 | 554 | 2210 | 377 | 243 | – | –
B2 | 572 | 826 | 385 | 308 | 216 | 469
